{"source": "paper PMC11903869", "about": "“Structure and function of the geldanamycin amide synthase from Streptomyces hygroscopicus” (Nature Communications, 2025)", "molecules": {"B1": {"name": "GdmF (Streptomyces hygroscopicus) (protein)", "chain": "MFDVAKYLRRIGVEGTPPPTLDTLRHLHKRHLMAVPYDNSTAPDRLPASRHLTNVPLDLVFGHVVTEGHGGVCYELNRLFHTLLAELGYDVRMVAAAVRQANGTFGPEREHTFDLVHLDGRTHLVDVGFPGPSYSEPLYLSEEEQHQYGCSYRVTEHDGYRVVERRPKGSDWQPVYRFRPELADPSGWDAVRLDSLDDYAQDSVLAGTTFRSRATDNGKIVLIGRRYFTVEDGVERTKVLVKADEFQDVVDLILAGA", "notes": "full-length GdmF, N-terminal histidine hexamer"}}, "key": {"GdmF [1]": {"molecular_target": "T1, GdmF (Streptomyces hygroscopicus, UniProt Q84G21)", "T1 construct": "full-length GdmF, N-terminal histidine hexamer", "assay": "X-ray crystal structure (cleaved group from SNAC thioesters)", "format": "binding"}, "GdmF [2]": {"molecular_target": "T1, GdmF", "assay": "X-ray crystal structure (cleaved group from pantetheine thioesters)", "format": "binding"}, "GdmF [3]": {"molecular_target": "T1, GdmF", "assay": "microscale thermophoresis", "format": "binding"}, "[4]": {"substrate": "CC/C=C/C(=O)SCCNC(=O)CCNC(=O)[C@H](O)C(C)(C)CO", "assay": "purified protein, by the assay type", "design": "Steady-state amide formation, thiol release from thioesters monitored with DTNB at 405 nm, 22 °C; kcat: unit: s^-1", "conditions": "pH 7.5; 22.0 °C", "method": "(§1) The enzymatic activity of ShGdmF was measured by monitoring the release of free thiols with 5,5’-dithio-bis(2-nitrobenzoic acid) (DTNB) at 405 nm in 100 mM sodium phosphate buffer, pH 7.5. 2 µM ShGdmF was pre-incubated with 2 mM aminophenol 32 or 33 and 100 µM DTNB at 22 °C for 5 min in a 96-well plate before increasing concentrations of thioester 11a-c or 13a-c were added to each well. Measurements were performed using a Multiskan FC Microplate Photometer (Thermo Fisher Scientific) at 22 °C. Each measurement was performed in triplicate. […] The enzyme is able to catalyze the amide synthesis of SNAC and pantetheine thioesters directly in vitro and in the absence of the cellular environment (Fig. 6e + 6f). The kinetic parameters KM of GdmF for substrate conversion range from submillimolar to millimolar at maximum rates (kcat) of 0.001 to 0.02 s^−1. […] For the SNAC thioesters, an increase in kcat/KM with increasing chain length was observed, whereas in the case of the pantetheine thioesters, a decrease in catalytic efficiency with longer acyl substrates was observed. In terms of kcat values, the activity of GdmF is similar to that of the related MsNAT."}, "[5]": {"substrate": "CC(=O)SCCNC(=O)CCNC(=O)[C@H](O)C(C)(C)CO", "assay": "purified protein, by the assay type", "design": "Steady-state amide formation, thiol release from thioesters monitored with DTNB at 405 nm, 22 °C; kcat: unit: s^-1", "conditions": "pH 7.5; 22.0 °C", "method": "as §1"}, "[6]": {"substrate": "C/C=C(\\C)C(=O)SCCNC(C)=O", "assay": "purified protein, by the assay type", "design": "Steady-state amide formation, thiol release from thioesters monitored with DTNB at 405 nm, 22 °C; kcat: unit: s^-1", "conditions": "pH 7.5; 22.0 °C", "method": "as §1"}, "[7]": {"substrate": "C/C=C/C(=O)SCCNC(C)=O", "assay": "purified protein, by the assay type", "design": "Steady-state amide formation, thiol release from thioesters monitored with DTNB at 405 nm, 22 °C; kcat: unit: s^-1", "conditions": "pH 7.5; 22.0 °C", "method": "as §1"}, "[8]": {"substrate": "CC/C=C/C(=O)SCCNC(=O)CCNC(=O)[C@H](O)C(C)(C)CO", "assay": "purified protein, by the assay type", "design": "Steady-state amide formation, thiol release from thioesters monitored with DTNB at 405 nm, 22 °C; kcat: unit: s^-1", "conditions": "pH 7.5; 22.0 °C", "method": "as §1", "remark": "listed apart in the source"}, "[9]": {"substrate": "CC(=O)SCCNC(=O)CCNC(=O)[C@H](O)C(C)(C)CO", "assay": "purified protein, by the assay type", "design": "Steady-state amide formation, thiol release from thioesters monitored with DTNB at 405 nm, 22 °C; kcat: unit: s^-1", "conditions": "pH 7.5; 22.0 °C", "method": "as §1", "remark": "listed apart in the source"}, "[10]": {"substrate": "C/C=C(\\C)C(=O)SCCNC(C)=O", "assay": "purified protein, by the assay type", "design": "Steady-state amide formation, thiol release from thioesters monitored with DTNB at 405 nm, 22 °C; kcat: unit: s^-1", "conditions": "pH 7.5; 22.0 °C", "method": "as §1", "remark": "listed apart in the source"}, "[11]": {"substrate": "C/C=C/C(=O)SCCNC(C)=O", "assay": "purified protein, by the assay type", "design": "Steady-state amide formation, thiol release from thioesters monitored with DTNB at 405 nm, 22 °C; kcat: unit: s^-1", "conditions": "pH 7.5; 22.0 °C", "method": "as §1", "remark": "listed apart in the source"}}, "data": [{"molecule": "CC(=O)NCCS", "note": "[N-acetylcysteamine]", "values": [{"measurement": "X-ray crystal structure (cleaved group from SNAC thioesters)", "setting": "GdmF [1]", "value": "we found densities for the cleaved SNAC or pantetheine groups, instead"}]}, {"molecule": "CC(C)(CO)[C@@H](O)C(=O)NCCC(=O)NCCS", "note": "[pantetheine]", "values": [{"measurement": "X-ray crystal structure (cleaved group from pantetheine thioesters)", "setting": "GdmF [2]", "value": "Crystal structure of GdmF with bound pantetheine, and (b) N-acetylcysteamine (SNAC) in the active site cleft"}]}, {"molecule": "C/C=C(\\C)C(=O)SCCNC(C)=O", "note": "[11b, SNAC ester 11b]", "values": [{"measurement": "Kd", "setting": "GdmF [3]", "value": 1160, "unit": "µM"}]}, {"molecule": "CC(=O)SCCNC(=O)CCNC(=O)[C@H](O)C(C)(C)COP(=O)(O)OP(=O)(O)OC[C@H]1O[C@@H](n2cnc3c(N)ncnc32)[C@H](O)[C@@H]1OP(=O)(O)O", "note": "[compound 5, acetyl-CoA]", "values": [{"measurement": "Kd", "setting": "GdmF [3]", "value": 2960, "unit": "µM"}]}, {"molecule": "B1", "values": [{"measurement": "Km", "setting": "[4]", "value": "1.1368 ± 0.1369", "unit": "mM"}, {"measurement": "kcat", "setting": "[4]", "value": "0.0027 ± 0.00013", "unit": "s⁻¹"}, {"measurement": "kcat/Km", "setting": "[4]", "value": 2.37, "unit": "M⁻¹ s⁻¹"}, {"measurement": "Km", "setting": "[5]", "value": "6.4136 ± 2.0704", "unit": "mM"}, {"measurement": "kcat", "setting": "[5]", "value": "0.0164 ± 0.0039", "unit": "s⁻¹"}, {"measurement": "kcat/Km", "setting": "[5]", "value": 2.56, "unit": "M⁻¹ s⁻¹"}, {"measurement": "Km", "setting": "[6]", "value": "2.735 ± 0.6103", "unit": "mM"}, {"measurement": "kcat", "setting": "[6]", "value": "0.0071 ± 0.0007", "unit": "s⁻¹"}, {"measurement": "kcat/Km", "setting": "[6]", "value": 2.6, "unit": "M⁻¹ s⁻¹"}, {"measurement": "Km", "setting": "[7]", "value": "0.8581 ± 0.2327", "unit": "mM"}, {"measurement": "kcat", "setting": "[7]", "value": "0.0016 ± 0.00019", "unit": "s⁻¹"}, {"measurement": "kcat/Km", "setting": "[7]", "value": 1.87, "unit": "M⁻¹ s⁻¹"}, {"measurement": "Km", "setting": "[8]", "value": "8.2677 ± 1.6107", "unit": "mM"}, {"measurement": "kcat", "setting": "[8]", "value": "0.0084 ± 0.0013", "unit": "s⁻¹"}, {"measurement": "kcat/Km", "setting": "[8]", "value": 1.02, "unit": "M⁻¹ s⁻¹"}, {"measurement": "Km", "setting": "[9]", "value": "3.6483 ± 2.8127", "unit": "mM"}, {"measurement": "kcat", "setting": "[9]", "value": "0.0075 ± 0.0051", "unit": "s⁻¹"}, {"measurement": "kcat/Km", "setting": "[9]", "value": 2.06, "unit": "M⁻¹ s⁻¹"}, {"measurement": "Km", "setting": "[10]", "value": "6.9024 ± 4.1426", "unit": "mM"}, {"measurement": "kcat", "setting": "[10]", "value": "0.012 ± 0.0058", "unit": "s⁻¹"}, {"measurement": "kcat/Km", "setting": "[10]", "value": 1.74, "unit": "M⁻¹ s⁻¹"}, {"measurement": "Km", "setting": "[11]", "value": "1.8651 ± 0.2537", "unit": "mM"}, {"measurement": "kcat", "setting": "[11]", "value": "0.0032 ± 0.00026", "unit": "s⁻¹"}, {"measurement": "kcat/Km", "setting": "[11]", "value": 1.72, "unit": "M⁻¹ s⁻¹"}]}]}
